Laboratory results reported in article PMC3644210 (Biochemical pharmacology, 2012).
Ends that are not written are not given here.

How the values were obtained:
Kv1.1 = Kv1.1 (Homo sapiens, UniProt Q09470); format: cell-based
[1] = comparison value; source not explicitly stated; cited from earlier work
Kv1.5 (wildtype) = Kv1.5 (wildtype) (UniProt P22460)
Kv1.1 E353T = Kv1.1 E353T (UniProt Q09470)
Kv1.5 R487T = Kv1.5 R487T (UniProt P22460)
Kv1.1 Y379V = Kv1.1 Y379V (UniProt Q09470)
Sequence of Kv1.1 Y379V (Q09470 whole entry Y379V): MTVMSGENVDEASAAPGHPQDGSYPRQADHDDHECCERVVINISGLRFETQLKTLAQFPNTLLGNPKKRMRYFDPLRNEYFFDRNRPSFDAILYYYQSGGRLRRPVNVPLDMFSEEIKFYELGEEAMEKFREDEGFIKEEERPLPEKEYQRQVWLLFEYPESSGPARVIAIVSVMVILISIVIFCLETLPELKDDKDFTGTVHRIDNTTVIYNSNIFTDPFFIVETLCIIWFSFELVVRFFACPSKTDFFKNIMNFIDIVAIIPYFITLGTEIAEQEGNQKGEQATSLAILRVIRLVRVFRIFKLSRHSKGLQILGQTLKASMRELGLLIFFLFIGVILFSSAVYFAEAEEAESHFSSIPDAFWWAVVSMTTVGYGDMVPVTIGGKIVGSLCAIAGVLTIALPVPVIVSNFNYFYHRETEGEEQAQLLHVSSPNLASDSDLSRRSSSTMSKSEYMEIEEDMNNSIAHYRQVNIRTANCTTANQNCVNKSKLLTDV

Sequence of Kv1.1 (Q09470 whole entry): as the sequence (Q09470 whole entry Y379V) above, with V379Y counted along it
Sequence of Kv1.1 E353T (Q09470 whole entry E353T): as the sequence (Q09470 whole entry Y379V) above, with E353T, V379Y counted along it
Sequence of Kv1.5 R487T (P22460 whole entry R487T): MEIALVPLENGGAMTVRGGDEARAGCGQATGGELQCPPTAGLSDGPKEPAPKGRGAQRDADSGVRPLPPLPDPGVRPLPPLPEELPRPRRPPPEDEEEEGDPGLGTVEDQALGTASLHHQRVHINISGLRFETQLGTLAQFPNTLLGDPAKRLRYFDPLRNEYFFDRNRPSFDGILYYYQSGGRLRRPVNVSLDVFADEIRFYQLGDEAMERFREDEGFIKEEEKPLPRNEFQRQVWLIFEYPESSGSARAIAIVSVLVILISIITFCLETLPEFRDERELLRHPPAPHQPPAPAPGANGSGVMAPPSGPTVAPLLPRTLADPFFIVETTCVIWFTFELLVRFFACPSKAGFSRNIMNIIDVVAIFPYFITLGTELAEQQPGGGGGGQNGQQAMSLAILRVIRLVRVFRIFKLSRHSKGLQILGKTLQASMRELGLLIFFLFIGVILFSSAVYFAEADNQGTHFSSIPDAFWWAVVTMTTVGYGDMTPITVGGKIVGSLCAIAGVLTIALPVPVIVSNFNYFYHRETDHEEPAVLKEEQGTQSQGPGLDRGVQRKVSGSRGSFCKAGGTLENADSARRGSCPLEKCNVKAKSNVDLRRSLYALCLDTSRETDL
Sequence of Kv1.5 (wildtype) (P22460 whole entry): as the sequence (P22460 whole entry R487T) above, with T487R counted along it

## CC[N+](CC)(CC)CC [TEA, Tetraethylammonium]
Kv1.1; 0.4 mM TEA, n = 6, 250-ms steps to +10 mV
  reduction of the K+ current by TEA: 55 ± 2%
Kv1.1; read-out: IC50 of TEA on Kv1.1, Kv1.1, source of the IC50 not stated
  IC50: 400 µM

## OcyC8: κ-KTx2 scorpion toxin from Opisthacanthus cayaporum (YDACVNACLEHHPNVRECEEACKNPVPP; UniProt P86110 43-70, looked up)
[1]
  pI of OcyC8: 4.92

## SCKKECSGSRRTKKCMQKCNREHGH-NH2 (ends and bridges not checked) [Hl15-1-1 (Heterometrus laoticus toxin)]
Kv1.5 (wildtype)
  percent inhibition of the K+ current by 30 μM Hl15-1-1 (whole-cell patch clamp): 1%
Kv1.1 E353T
  percent inhibition of the K+ efflux by 30 μM Hl15-1-1 (whole-cell patch clamp): 32%
Kv1.5 R487T
  percent inhibition of the K+ current by 30 μM Hl15-1-1 (whole-cell patch clamp): 26.3%
Kv1.1 Y379V
  percent inhibition of the K+ efflux by 30 μM Hl15-1-1 (whole-cell patch clamp): 6.1%
